Measurements from patent US20210079088A1 (published 2021).

T1: soluble human IL-4Rα (sIL-4Rα; PEPRO TECH, Catalog Number: 200-04R) (human, UniProt P24394 26-232)
T1 construct: Bought protein; also called shIL-4Rα; soluble hIL-4 Rα
T1 sequence: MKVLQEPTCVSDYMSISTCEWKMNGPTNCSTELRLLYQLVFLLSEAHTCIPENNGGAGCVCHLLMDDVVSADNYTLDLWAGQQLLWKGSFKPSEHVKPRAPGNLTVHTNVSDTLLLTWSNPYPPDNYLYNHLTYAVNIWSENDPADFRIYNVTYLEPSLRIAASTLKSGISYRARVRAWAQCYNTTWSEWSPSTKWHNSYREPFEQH


Molecular target: T1, soluble human IL-4Rα (sIL-4Rα; PEPRO …)
Assay: ELISA, coated sIL-4Rα, culture supernatant
Description: Sample to be tested: For each antibody of the present invention, 10 μl and 2 μl of the culture supernatant of Expi293 cells expressing the antibody after transient transfection (the medium was Expi293 Expression Medium, Invitrogen, Catalog Number: A1435102; suspension culture was performed for 4 days at 100 rpm in a 8% CO2 incubator) were respectively added to 990 μl and 998 μl of PBS to prepare antibody samples to be tested of 1:100 and 1:500 dilutions.
100 μl of 100 μg/ml sIL-4Rα solution was added to 9.90 ml of PBS, mixed up and down, and then an antigen coating buffer of 1.0 μg/ml was obtained. The prepared antigen coating buffer was added to a 96-well ELISA plate (Corning) with a volume of 100 μl per well. The 96-well ELISA plate was incubated overnight in a refrigerator at 4° C. On the next day, the solution therein was discarded, and PBS containing 2% BSA was added to the 96-well ELISA plate row by row with a volume of 300 μl per well. The 96-well ELISA plate was incubated for 2 hours in a refrigerator at 4° C. Then the PBS containing 2% BSA was discarded and the plate was washed 3 times with PBST. Diluted antibodies to be tested were sequentially added to the corresponding wells, while the normal cell culture supernatants, as negative control samples, were added too. Three duplicate wells were made for each sample with a volume of 100 μl per well. The ELISA plate was wrapped with preservative film (or covered) and incubated for 1 h at 10° C. in a constant temperature incubator. Subsequently, the 96-well ELISA plate was taken out, and the solution therein was discarded. After washing with PBST for 3 times, TMB solution (Solarbio, Catalog Number: PR1200) was added to the 96-well ELISA plate row by row with a volume of 100 μl per well. The 96-well ELISA plate was placed at room temperature for 5 minutes, and 2 M H2SO4 solution was added in immediately to terminate the reaction. The 96-well ELISA plate was placed in flexstation 3 (Molecular Devices), the values of OD450 were read, and the data were collected, calculated and analyzed. Results were expressed relative to the affinity of control antibody 1.

Row | Binder | OD450/OD450 Control antibody 1
1 | L1000H1007 (antibody, V domains shown) VH: EVQLVQSGGGLVHPGGSLRLSCAGSGFTFSRNAMFWVRQAPGKGLEWVSGIGTGGATSYADSVKGRFTISRDNAKNSLYLQMNSLRAEDMAVYYCARGRYYFDYWGQGTLVTVSS VL: not shown | 0.37 ratio to control antibody 1
2 | L1000H1027 (antibody, V domains shown) VH: EVQLVESGGGLVHPGGSLRLSCAASGFTFSRNAMFWVRQAPGKGLEWVSGIGTGGATSYADSVKGRFTISRDNAKNSLYLQMNSLRAEDTAVYYCARGRYYFPWWGQGTLVTVSS VL: not shown | 0.44 ratio to control antibody 1
3 | L1000H1009 (antibody, V domains shown) VH: EVQLVESGGGLVHPGGSLRLSCAGSGFTFSRNAMFWVRQAPGKGLEWVSGIGTGGATNYADSVKGRFTISRDNAKNSLYLQMNSLRAEDMAVYYCARGRYYFDYWGQGTLVTVSS VL: not shown | 0.56 ratio to control antibody 1
4 | L1000H1029 (antibody, V domains shown) VH: EVQLVESGGGLVQPGGSLRLSCAASGFTFSRNAMFWVRQAPGKGLEWVSGIGTGGATSYADSVKGRFTISRDNAKNSLYLQMNSLRAEDMAVYYCARGRYYFPWWGQGTLVTVSS VL: not shown | 0.8 ratio to control antibody 1
5 | L1000H1024 (antibody, V domains shown) VH: EVQLVQSGGGLVQPGGSLRLSCAGSGFTFSRNAMFWVRQAPGKGLEWVSGIGTGGATSYADSVKGRFTISRDNAKNSLYLQMNSLRAEDTAVYYCARGRYYFPWWGQGTLVTVSS VL: not shown | 0.26 ratio to control antibody 1
6 | L1000H1016 (antibody, V domains shown) VH: EVQLVQSGGGLVHPGGSLRLSCAGSGFTFSRNAMFWVRQAPGKGLEWVSGIGTGGATNYADSVKGRFTISRDNAKNSLYLQMNSLRAEDMAVYYCARGRYYFPWWGQGTLVTVSS VL: not shown | 0.61 ratio to control antibody 1
7 | L1000H1008 (antibody, V domains shown) VH: EVQLVQSGGGLVHPGGSLRLSCAGSGFTFSRNAMFWVRQAPGKGLEWVSGIGTGGATNYADSVKGRFTISRDNAKNSLYLQMNSLRAEDTAVYYCARGRYYFDYWGQGTLVTVSS VL: not shown | 0.21 ratio to control antibody 1
8 | L1000H1015 (antibody, V domains shown) VH: EVQLVESGGGLVQPGGSLRLSCAGSGFTFSRNAMFWVRQAPGKGLEWVSGIGTGGATNYADSVKGRFTISRDNAKNSLYLQMNSLRAEDMAVYYCARGRYYFDYWGQGTLVTVSS VL: not shown | 0.65 ratio to control antibody 1
9 | L1000H1035 (antibody, V domains shown) VH: EVQLVQSGGGLVHPGGSLRLSCAGSGFTFSRNAMHWVRQAPGKGLEWVSGIGTGGATNYADSVKGRFTISRDNAKNSLYLQMNSLRAEDMAVYYCARGRYYFDYWGQGTLVTVSS VL: not shown | 0.22 ratio to control antibody 1
10 | L1000H1026 (antibody, V domains shown) VH: EVQLVESGGGLVQPGGSLRLSCAGSGFTFSRNAMFWVRQAPGKGLEWVSGIGTGGATSYADSVKGRFTISRDNAKNSLYLQMNSLRAEDTAVYYCARGRYYFPWWGQGTLVTVSS VL: not shown | 0.11 ratio to control antibody 1
11 | L1000H1022 (antibody, V domains shown) VH: EVQLVQSGGGLVHPGGSLRLSCAGSGFTFSRNAMFWVRQAPGKGLEWVSGIGTGGATSYADSVKGRFTISRDNAKNSLYLQMNSLRAEDTAVYYCARGRYYFPWWGQGTLVTVSS VL: not shown | 0.18 ratio to control antibody 1
12 | L1000H1014 (antibody, V domains shown) VH: EVQLVQSGGGLVQPGGSLRLSCAASGFTFSRNAMFWVRQAPGKGLEWVSGIGTGGATNYADSVKGRFTISRDNAKNSLYLQMNSLRAEDMAVYYCARGRYYFDYWGQGTLVTVSS VL: not shown | 1.06 ratio to control antibody 1
13 | L1000H1021 (antibody, V domains shown) VH: EVQLVQSGGGLVHPGGSLRLSCAGSGFTFSRNAMFWVRQAPGKGLEWVSGIGTGGATNYADSVKGRFTISRDNAKNSLYLQMNSLRAEDTAVYYCARGRYYFPWWGQGTLVTVSS VL: not shown | 0.35 ratio to control antibody 1
14 | L1000H1028 (antibody, V domains shown) VH: EVQLVQSGGGLVQPGGSLRLSCAASGFTFSRNAMFWVRQAPGKGLEWVSGIGTGGATSYADSVKGRFTISRDNAKNSLYLQMNSLRAEDTAVYYCARGRYYFPWWGQGTLVTVSS VL: not shown | 0.33 ratio to control antibody 1
15 | L1000H1013 (antibody, V domains shown) VH: EVQLVESGGGLVHPGGSLRLSCAASGFTFSRNAMFWVRQAPGKGLEWVSGIGTGGATNYADSVKGRFTISRDNAKNSLYLQMNSLRAEDMAVYYCARGRYYFDYWGQGTLVTVSS VL: not shown | 0.38 ratio to control antibody 1

The remaining lines, values ahead:

Row | OD450/OD450 Control antibody 1 | Binder
16 | 0.63 ratio to control antibody 1 | L1000H1023 (antibody, V domains shown) VH: EVQLVESGGGLVHPGGSLRLSCAGSGFTFSRNAMFWVRQAPGKGLEWVSGIGTGGATSYADSVKGRFTISRDNAKNSLYLQMNSLRAEDTAVYYCARGRYYFPWWGQGTLVTVSS VL: not shown
17 | 0.1 ratio to control antibody 1 | L1000H1036 (antibody, V domains shown) VH: EVQLVQSGGGLVHPGGSLRLSCAGSGFTFSRNAMFWVRQAPGEGLEWVSGIGTGGATNYADSVKGRFTISRDNAKNSLYLQMNSLRAEDMAVYYCARGRYYFDYWGQGTLVTVSS VL: not shown
18 | 0.21 ratio to control antibody 1 | L1000H1025 (antibody, V domains shown) VH: EVQLVQSGGGLVHPGGSLRLSCAASGFTFSRNAMFWVRQAPGKGLEWVSGIGTGGATSYADSVKGRFTISRDNAKNSLYLQMNSLRAEDTAVYYCARGRYYFPWWGQGTLVTVSS VL: not shown
19 | 1.14 ratio to control antibody 1 | L1000H1031 (antibody, V domains shown) VH: EVQLVESGGGLVQPGGSLRLSCAASGFTFSRNAMFWVRQAPGKGLEWVSGIGTGGATSYADSVKGRFTISRDNAKNSLYLQMNSLRAEDTAVYYCARGRYYFDYWGQGTLVTVSS VL: not shown
20 | 0.18 ratio to control antibody 1 | L1000H1012 (antibody, V domains shown) VH: EVQLVQSGGGLVHPGGSLRLSCAGSGFTFSRNAMFWVRQAPGKGLEWVSGIGTGGATSYADSVKGRFTISRDNAKNSLYLQMNSLRAEDTAVYYCARGRYYFDYWGQGTLVTVSS VL: not shown
21 | 0.53 ratio to control antibody 1 | L1000H1032 (antibody, V domains shown) VH: EVQLVESGGGLVQPGGSLRLSCAASGFTFSRNAMFWVRQAPGKGLEWVSGIGTGGATNYADSVKGRFTISRDNAKNSLYLQMNSLRAEDMAVYYCARGRYYFPWWGQGTLVTVSS VL: not shown
22 | 0.11 ratio to control antibody 1 | L1000H1010 (antibody, V domains shown) VH: EVQLVQSGGGLVQPGGSLRLSCAGSGFTFSRNAMFWVRQAPGKGLEWVSGIGTGGATNYADSVKGRFTISRDNAKNSLYLQMNSLRAEDMAVYYCARGRYYFDYWGQGTLVTVSS VL: not shown
23 | 0.2 ratio to control antibody 1 | L1000H1030 (antibody, V domains shown) VH: EVQLVESGGGLVQPGGSLRLSCAASGFTFSRNAMFWVRQAPGKGLEWVSGIGTGGATNYADSVKGRFTISRDNAKNSLYLQMNSLRAEDTAVYYCARGRYYFPWWGQGTLVTVSS VL: not shown
24 | -0.01 ratio to control antibody 1 | L1000H1037 (antibody, V domains shown) VH: EVQLVQSGGGLVHPGGSLRLSCAGSGFTFSRNAMFWVRQAPGKGLEWVSGIGTGGATNYADSVKGRFTISRDEAKNSLYLQMNSLRAEDMAVYYCARGRYYFDYWGQGTLVTVSS VL: not shown
25 | 0.23 ratio to control antibody 1 | L1000H1020 (antibody, V domains shown) VH: EVQLVQSGGGLVHPGGSLRLSCAGSGFTFSRNAMFWVRQAPGKGLEWVSGIGTGGATSYADSVKGRFTISRDNAKNSLYLQMNSLRAEDMAVYYCARGRYYFPWWGQGTLVTVSS VL: not shown
26 | 1.56 ratio to control antibody 1 | L1001H1000 (antibody, V domains shown) VH: EVQLVQSGGGLVHPGGSLRLSCAGSGFTFSRNAMFWVRQAPGKGLEWVSGIGTGGATNYADSVKGRFTISRDNAKNSLYLQMNSLRAEDMAVYYCARGRYYFDYWGQGTLVTVSS VL: EIVLTQSPGTLSLSPGERATLSCRASQSVSNSYLAWYQQKPGQAPRLLIYGASSRAPGIPDRFSGSGSGTDFTLTISRLEPEDFAVYYCQQYDHSAGWTFGQGTKVEIK
27 | 0.7 ratio to control antibody 1 | L1000H1001 (antibody, V domains shown) VH: EVQLVESGGGLVQPGGSLRLSCAASGFTFSRNAMFWVRQAPGKGLEWVSGIGTGGATSYADSVKGRFTISRDNAKNSLYLQMNSLRAEDTAVYYCARGRYYFPWWGQGTLVTVSS VL: not shown
